Experiment: soluble on expression in E. coli; label from the status in PepcDB or PDB records

Soluble on expression in E. coli, not soluble:
MGHHHHHHSHMEWKVKIRSDGTRYITKRPVRDRILKERALKIKEERSGMTTDDDTMSEMKMGRYWSKEERKQHLVRAKEQRRRREFMMRSRLECLKESPQSGSEGKKEINIIELSHKKMMKKRNKKILDNWMTIQELMTHGAKSPDGTRVHNAFLSVTTV
MAAISLAKVEETAPALVSLYKSAGVSLHKHGLDGQRAAVYLVVDYSGSMRPYYKDGSVQALTDRVLGLSAHLDDDGTVPVVFFSTDIDAVTDIALADHQGHIELIVAGLGHMGKTSYHLAMDAVIDHYLDSGSKDPAFVVFQTDGGPTSKPAAERYLCKAAELPLFWQFIGFGDPGSRQFEFLRKLDELAVPHKRVVDNAGFFHAGTDPRKVSDGELYDRLVGEFPQWLAAARTHGIVRLEHHHHHH
MGSDKIHHHHHHMKNNKNEKLKITIVSGFLGSGKTTFLTHYINELLKIDEKITVIMNEFGSFDVDGNHLSELVKVYPLLNGCVCCDMKSDLVQQIEMLSHNHETDHIIIEATGIAHPIELIMACQDPRIVQFVERPHVVSIVDALRFLQRQQYTDSTKRLMEEQLEVSDVLVVNKLDLISVEDRDALKNQLNEVNKYSSKIYTTYGQVNIEELSQFRDQLVMTHTHSHHHGINSMQYTFTTAIDRQLFYQFILRMPDNVLRLKGYVQFKDEPNVTYEFQYSFGMPDYEVINGDYPLTIVLIGEQLDVNRLKNKLDVLQFS
MEYKPMPYPIIDSHCHLDFPKFNPDREEAIQRARKAGVVGMVNSGISLKGNRISLELAEKNEDIHAALGLSPDIGREGSDKDINAILAQIEANAGKAVAIGEAGLDFQDCKTDEERRRQTASFKKVIELAKNLEKPLVVHARMAEAEVLELARDVDTVIYHCYSGSVETMKEIVDAGYYISLATLVCFSEHHQTLAAEVPPENLLLETDSPFLSPRRGRNEPAFIVDSIPVVAEYKEMEPAEIAKFATENARRVFKILEHHHHHH
MAHHHHHHMHRNIHGGTASATIANSALVSPPPHTTIPPLPAGMDPTYYALSLLRRRRLEECIAVSTQYLAVFNEKMRLTSSGTQKQADGVDEPLWFIQTRALITQDWFDELDVDNDGVDEVLLDGEQNISSTAHRPGTSLQRKDAPTGTTIPTGMAQRQGTARPISSRYGYVRPGTQSRNRPGTMSIRPITSRMMRIGTASLQAVPGGPHIDVRKLNLEKYGRTKPIVARILCDFLLHVEHRPRMVLELGAIALEQQPKDWWWMSRMGQAYYRLGLLREAERMFKAALTIQENVADVMRLARVFTKMDQPLKALDLLSEASKKNPMDHHLLLHMARLYDQLQDAEKSCQLYRRVLQLDSSNMESIACIAAYMFYEKKQPEIALRLYRRLLQMGVQTTELWNNLGLCCFYSSQYDIALSCLQRAVAISTEDETLADVWYNIGHIGIGTGDLGLAHRAFKVALGANPRHAEALNNLAVLNLNIGQVDQAMNDLAMAIEVSPEQHEPLYNFALLAFKAGNFEKSYKLLTQALEACPDHPESALLQATLRKSLATL
AHHHHHHGSAESPFKADIERAQKELSEKMTPGAIVYIPGSSVINKTGSWRVFKPEFNRDKCVRCYLCYIYCPEPAIYLDEEGYPVFDYDYCKGCGICANECPTKAIEMVREVK
MILFDYKLLAALAAVVEQGGFERAAQALGLSQSAVSQRIKLLEARVGQPVLVRETPPHPTDLGRRLLNHVQQVRLLEGDLQRWVPNLDEGGAPERLRIALNADSLATWWAAAVGDFCAERRVLLDLVVEDQEVGLKRMRAGEVAGCVCGSARPVAGARSLLLGAMRYRGLASPDFIARHFPRGVEAAALAGVPAIVFGPDDLLQHRFLKDLGVEGGFIHHLCPSSEGFVRLTAGGLGWGLVPERQVQGELARGELVELLPGQVIDVPLYWHYWRNGGELLASLTEHLLARAGDGLVRVSG
MGHHHHHHSHELIREVEMGPFKHTVDDGLDIRKAAFECMYTLLDSCLDRLDIFEFLNHVEDGLKDHYDIKMLTFLMLVRLSTLCPSAVLQRLDRLVEPLRATCTTKVKANSVKQEFEKQDELKRSAMRAVAALLTIPEAEKSPLMSEFQSQISSNPELAAIFESIQKDSSSTNLESMDTS
MIENHLYSLVTVVKYKLLPCLLAIFLTGCDRTEVTLSFTPEMASFSNEFDFDPLRGPVKDFTQTLMDEQGEVTKRVSGTLSEEGCFDSLELLDLENNTVVALVLDANYYRDAETLEKRVRLQGKCQLAELPSAGVSWETDDNGFVIKASSKQMQMEYRYDDQGYPLGKTTKSNDKTLSVSATPSTDPIKKLDYTAVTLLNNQRVGNVKQSCEYDSHANPVDCQLIIVDEGVKPAVERVYTIKNTIDYY
MGSDKIHHHHHHMTAQTHNDVAVCWNQNANQWTSDVRNGYDVYRDFFTLPAFLQFLPTMADLNVIDFGCGEGSNTRHFAQMGAKVVGIDISNGLIEHARQAERVDPVGITYKIVSYSSDTGFPASSFDAVVSTMALMDGPDLQGAMHEAYRLLRPGGFVAFSVLHPCFITPGWQWQKDENGQTTGLCTSRYFDKSGFTENWKFGNRPKDENVAPFAVPRFPRTIGDYINAVASVGFRISKIEEPQPTEEACKAIPQLRRWRDLGAFLLLVIAERPK
MPQQKNFVTMPAQHQNKQPGIESLMNPLPQFEDPNYKGSEKLKGKNVLITGGDSGIGRAVSIAFAKEGANIAIAYLDEEGDANETKQYVEKEGVKCVLLPGDLSDEQHCKDIVQETVRQLGSLNILVNNVAQQYPQQGLEYITAEQLEKTFRINIFSYFHVTKAALSHLKQGDVIINTASIVAYEGNETLIDYSATKGAIVAFTRSLSQSLVQKGIRVNGVAPGPIWTPLIPSSFDEKKVSQFGSNVPMQRPGQPYELAPAYVYLASSDSSYVTGQMIHVNGGVIVNG
MRTLFLELMEQYVVAKNPKLMLRRSETVVERMLSNWMSICLYQYLKDSAGEPLYKLFKAIKHQVEKGPVDAVQKKAKYTLNDTGLLGDDVEYAPLTVSVIVQDEGIDAIPVKVLNCDTISQVKEKIIDQVYRTQPCSCWPKPDSVVLEWRPGSTAQILSDLDLTSQREGRWKRINTLMHYNVRDGATLILSKVGVSQQPEDSQQDLPGERHALLEEENRVWHLVRPTDEVDEGKSKRGSMKEKERTKAITEIYLTRLLSVKGTLQQFVDNFFQSVLAPGHAVPPAVKYFFDFLDEQAEKHDIRDEDTIHIWKTNSLPLRFWVNILKNPHFIFDVHVHEVVDASLSVIAQTFMDACTRTEHKLSRDSPSNKLLYAKEISTYKKMVEDYYKGIRQMVQVSDQDMNTHLAEISRAHTDSLNTLVALHQLYQYTQKYYDEIINALEEDPAAQKMQLAFRLQQIAAALENKVTDL

Soluble on expression in E. coli, soluble:
AHHHHHHGSIDLILLAGKLKRIPRMGWLIKGVPNPESVADHSYRVAFITLLLAEELKKKGVEIDVEKALKIAIIHDLGEAIITDLPLSAQKYLNKEEAEAKALKDVLPEYTELFEEYSKALTLEGQLVKIADKLDMIIQAYEYELSGAKNLSEFWNALEDLEKLEISRYLREIIEEVRRLKDDH
MSTFGEHRPYVFLPPADLDRIAAQWSKDSARPDAQGRGIAIFSAITGSYDSINHHEHLIPGADYLLFSDAPKPRYVYQPRQAPWFDCDTVRAARFIKTHPHMLLGGYRIAVWIDGNILIRGDLLPLVQRFEESGLAFGAVPHPLRQSVYAEAVECMKRGKDDEATIRRQMQRYRREEFDCEDLIESNLLMFRLGHPSLAPLLDTWWAQIESGSRRDQLSLNYALHKTGVEWLALTQRPHSVRDHPALALMHHRSQFNPLEHHHHHH
SWKRNKFRLTYVAEAPDLTQGLSNVHKKRVSAARLLSRQNLQSPKSSRSTIFVRLHTNGNQELQYQPGDHLGVFPGNHEDLVNALIERLEDAPPANHVVKVEMLEERNTALGVISNWKDESRLPPCTIFQAFKYYLDITTPPTPLQLQQFASLATNEKEKQRLLVLSKGLQEYEEWKWGKNPTMVEVLEEFPSIQMPATLLLTQLSLLQPRYYSISSSPDMYPDEVHLTVAIVSYHTRDGEGPVHHGVCSSWLNRIQADDVVPCFVRGAPSFHLPRNPQVPCILVGPGTGIAPFRSFWQQRQFDIQHKGMNPCPMVLVFGCRQSKIDHIYREETLQAKNKGVFRELYTAYSREPDRPKKYVQDVLQEQLAESVYRALKEQGGHIYVCGDVTMAADVLKAIQRIMTQQGKLSEEDAGVFISRLRDDNRYHEDIFGV
MNTYAQESKLRLKTKIGADGRCVIEDNFFTPPFKLMAPFYPKDDLAEIMLLAVSPGMMRGDAQDVQLNIGPNCKLRITSQSFEKIHNTEDGFASRDMHIVVGENAFLDFAPFPLIPFENAHFKGNTTISLRSSSQLLYSEIIVAGRVARNELFKFNRLHTKISILQDEKPIYYDNTILDPKTTDLNNMCMFDGYTHYLNLVLVNCPIELSGVRECIEESEGVDGAVSETASSHLCVKALAKGSEPLLHLREKIARLVTQTTTQKVLEHHHHHH
LSITTPEQRIEKAKGETAYLPCKFTLSPEDQGPLDIEWLISPSDNQIVDQVIILYSGDKIYDNYYPDLKGRVHFTSNDVKSGDASINVTNLQLSDIGTYQCKVKKAPGVANKKFLLTVLVKPSGTRCFVDGSEEIGNDFKLKCEPKEGSLPLQFEWQKLSDSQTMPTPWLAEMTSPVISVKNASSEYSGTYSCTVQNRVGSDQCMLRLDVVPPS
MLKIGVLVSGRGSNLQAIIDAIESGKVNASIELVISDNPKAYAIERCKKHNVECKVIQRKEFPSKKEFEERMALELKKKGVELVVLAGFMRILSHNFLKYFPNKVINIHPSLIPAFQGLHAQKQAVEFGVKFSGCTVHIVDESVDAGPVIVQAVVPVLPEDDENTLADRILKWEHKILPQTVQWFAQDRIIIDGRKVIVKDATYGTLPVNPALEIF
MAEDGPQKQQLDMPLVLDQDLTKQMRLRVESLKQRGEKKQDGEKLLRPAESVYRLDFIQQQKLQFDHWNVVLDKPGKVTITGTSQNWTPDLTNLMTRQLLDPAAIFWRKEDSDAMDWNEADALEFGERLSDLAKIRKVMYFLITFGEGVEPANLKASVVFNQL
MAHHHHHHMLTSENPAERAGQAGQAIRPPPSPVPDGTRPSDSSRGDSSVSPLSTTGISSSSALDAPIVQSTQPSEKGLRSETISLGTALPNEQPKERSESKAKQGSSTSEEVAESPDDSGDAVEKEKKGDVGPKATTSLSSTTSNPPVTQTTPRASSAEPPPTETELQTGEETSTENVTITKRNNTTTPGDSDGSTAVSHTTSPLLLLLVVVECAAAAAVVAA
MGMKFRVVCRKLYDYVRYDLKEIAFPSSLPDPPHIKKRPKLTLKDKWCILKEATRLYGASWVRDIGPDLRPNDYKKVKEEPDIKTEEGSSEPTTVEDLLGALKGGAEKAKPALQRMYMARASNYTDALKNYVESYKEGLKEHLEEEAMGKGHRQGNDATKPPQSPSS
MSLRLPMGLVAVLALVGTAAHAAPKGAEARMIATVDAEQARTLRFLEVMVNQNSGSRNLEGVRRLRDIVVPEFTALGFTSRWIPMERTGRAGHLVLTHKGRQGAKKLLLIGHLDTVFEPDSPFQTYVLNGEKATGPGVGDDKGGIAVILAAVRAMNAAGTLKGASIEVFLTGDEEEAGSPTEVARADLVAAARAADVALDFEGLSRENGRDMGSIARRSSQSWSLTVEAKSGHSSGVWGANAGDGAIYAAAKIVNAFRTELPEPWLTLNVGLIAGGAEAEVAEDNAHVSAQGKTNIIPGEVIARGDLRTLSPEQNRAAMRKMEEIVGRPYPGVTSARIAFSEGYPPMAPTEGNKALLARLNQVNATLGLPEMQPLDPMKRGAGDISFVAEYIDGLVGLGPHSTGDHAPGETVDVPSIWTQAKRAALLMTRLSAEKSAREGHHHHHH
